Measured values as given in patent publication US20110263454A1, “Methods of Identifying Functional Characteristics of Promoters, Transcription Modifying Proteins and Transcription Modulating Agents” (Salk Institute for Biological Studies, priority 2008, published 2011).

B1: Erb: Estrogen Receptor β (NR3A2, ERb), cDNA driver (protein, UniProt Q92731 1-530, looked up)
Estrogen receptor beta: MDIKNSPSSLNSPSSYNCSQSILPLEHGSIYIPSSYVDSHHEYPAMTFYSPAVMNYSIPSNVTNLEGGPGRQTTSPNVLWPTPGHLSPLVVHRQLSHLYAEPQKSPWCEARSLEHTLPVNRETLKRKVSGNRCASPVTGPGSKRDAHFCAVCSDYASGYHYGVWSCEGCKAFFKRSIQGHNDYICPATNQCTIDKNRRKSCQACRLRKCYEVGMVKCGSRRERCGYRLVRRQRSADEQLHCAGKAKRSGGHAPRVRELLLDALSPEQLVLTLLEAEPPHVLISRPSAPFTEASMMMSLTKLADKELVHMISWAKKIPGFVELSLFDQVRLLESCWMEVLMMGLMWRSIDHPGKLIFAPDLVLDRDEGKCVEGILEIFDMLLATTSRFRELKLQHKEYLCVKAMILLNSSMYPLVTATQDADSSRKLAHLLNAVTDALVWVIAKSGISSQQQSMRLANLLMLLSHVRHASNKGMEHLLNMKCKNVVPVYDLLLEMLNAHVLRGCKSSITGSECSPAEDSKSKEGSQNPQSQ
B2: TR2: Testicular Orphan Nuclear Receptor 2 (NR2C1), cDNA driver (protein, UniProt P13056 1-603, looked up)
Nuclear receptor subfamily 2 …: MATIEEIAHQIIEQQMGEIVTEQQTGQKIQIVTALDHNTQGKQFILTNHDGSTPSKVILARQDSTPGKVFLTTPDAAGVNQLFFTTPDLSAQHLQLLTDNSPDQGPNKVFDLCVVCGDKASGRHYGAVTCEGCKGFFKRSIRKNLVYSCRGSKDCIINKHHRNRCQYCRLQRCIAFGMKQDSVQCERKPIEVSREKSSNCAASTEKIYIRKDLRSPLTATPTFVTDSESTRSTGLLDSGMFMNIHPSGVKTESAVLMTSDKAESCQGDLSTLANVVTSLANLGKTKDLSQNSNEMSMIESLSNDDTSLCEFQEMQTNGDVSRAFDTLAKALNPGESTACQSSVAGMEGSVHLITGDSSINYTEKEGPLLSDSHVAFRLTMPSPMPEYLNVHYIGESASRLLFLSMHWALSIPSFQALGQENSISLVKAYWNELFTLGLAQCWQVMNVATILATFVNCLHNSLQQDKMSTERRKLLMEHIFKLQEFCNSMVKLCIDGYEYAYLKAIVLFSPDHPSLENMEQIEKFQEKAYVEFQDYITKTYPDDTYRLSRLLLRLPALRLMNATITEELFFKGLIGNIRIDSVIPHILKMEPADYNSQIIGHSI
B3: ERR2: Estrogen Related Receptor β (NR3B2, ERRb), cDNA driver (protein, UniProt O95718 1-433, looked up)
Steroid hormone receptor ERR2: MSSDDRHLGSSCGSFIKTEPSSPSSGIDALSHHSPSGSSDASGGFGLALGTHANGLDSPPMFAGAGLGGTPCRKSYEDCASGIMEDSAIKCEYMLNAIPKRLCLVCGDIASGYHYGVASCEACKAFFKRTIQGNIEYSCPATNECEITKRRRKSCQACRFMKCLKVGMLKEGVRLDRVRGGRQKYKRRLDSESSPYLSLQISPPAKKPLTKIVSYLLVAEPDKLYAMPPPGMPEGDIKALTTLCDLADRELVVIIGWAKHIPGFSSLSLGDQMSLLQSAWMEILILGIVYRSLPYDDKLVYAEDYIMDEEHSRLAGLLELYRAILQLVRRYKKLKVEKEEFVTLKALALANSDSMYIEDLEAVQKLQDLLHEALQDYELSQRHEEPWRTGKLLLTLPLLRQTAAKAVQHFYSVKLQGKVPMHKLFLEMLEAKV
B4: TR4: Testicular Orphan Nuclear Receptor 4 (NR2C2), cDNA driver (protein, UniProt P49116 1-596, looked up)
Nuclear receptor subfamily 2 …: MTSPSPRIQIISTDSAVASPQRIQIVTDQQTGQKIQIVTAVDASGSPKQQFILTSPDGAGTGKVILASPETSSAKQLIFTTSDNLVPGRIQIVTDSASVERLLGKTDVQRPQVVEYCVVCGDKASGRHYGAVSCEGCKGFFKRSVRKNLTYSCRSNQDCIINKHHRNRCQFCRLKKCLEMGMKMESVQSERKPFDVQREKPSNCAASTEKIYIRKDLRSPLIATPTFVADKDGARQTGLLDPGMLVNIQQPLIREDGTVLLATDSKAETSQGALGTLANVVTSLANLSESLNNGDTSEIQPEDQSASEITRAFDTLAKALNTTDSSSSPSLADGIDTSGGGSIHVISRDQSTPIIEVEGPLLSDTHVTFKLTMPSPMPEYLNVHYICESASRLLFLSMHWARSIPAFQALGQDCNTSLVRACWNELFTLGLAQCAQVMSLSTILAAIVNHLQNSIQEDKLSGDRIKQVMEHIWKLQEFCNSMAKLDIDGYEYAYLKAIVLFSPDHPGLTSTSQIEKFQEKAQMELQDYVQKTYSEDTYRLARILVRLPALRLMSSNITEELFFTGLIGNVSIDSIIPYILKMETAEYNGQITGASL
B5: ERR3: Estrogen Related Receptor γ (NR3B3, ERRg), cDNA driver (protein, UniProt P62508 1-458, looked up)
Estrogen-related receptor …: MDSVELCLPESFSLHYEEELLCRMSNKDRHIDSSCSSFIKTEPSSPASLTDSVNHHSPGGSSDASGSYSSTMNGHQNGLDSPPLYPSAPILGGSGPVRKLYDDCSSTIVEDPQTKCEYMLNSMPKRLCLVCGDIASGYHYGVASCEACKAFFKRTIQGNIEYSCPATNECEITKRRRKSCQACRFMKCLKVGMLKEGVRLDRVRGGRQKYKRRIDAENSPYLNPQLVQPAKKPYNKIVSHLLVAEPEKIYAMPDPTVPDSDIKALTTLCDLADRELVVIIGWAKHIPGFSTLSLADQMSLLQSAWMEILILGVVYRSLSFEDELVYADDYIMDEDQSKLAGLLDLNNAILQLVKKYKSMKLEKEEFVTLKAIALANSDSMHIEDVEAVQKLQDVLHEALQDYEAGQHMEDPRRAGKMLMTLPLLRQTSTKAVQHFYNIKLEGKVPMHKLFLEMLEAKV

Key:
[1] = test system: hPPARg1 promoter; experiment: NHR-promoter luciferase screen, hPPARg1 promoter; format: cell-based, human; details: for Luc. act., normalized to lacZ / Normalized Luc. act., normalized to control: PPARG1 promoter, hormone receptor with or without its ligand; for Normalized Luc. act., normalized to control: relative to control; for Results of assays of transcription factor (+/- ligand) with hPPARg1: Table 6d, luciferase activity relative to control (control = 1.00)
How it was run: (§1)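 CV-1 cells were co-transfected with 50 ng NHR (homodimer or NHR/RXR heterodimer), 100 ng promoter-luciferase construct and 50 ng LacZ. Luciferase was normalized to LacZ and to a no-NHR/no-ligand control.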

[2] = test system: mUCP1 promoter; experiment: NHR-promoter luciferase screen, mUCP1 promoter; format: cell-based, mouse; details: for Luc. act., normalized to lacZ / Normalized Luc. act., normalized to control: mUCP1 promoter reporter, co-transfected HR, with or without its ligand; for Normalized Luc. act., normalized to control: relative to control; for luciferase activity normalized to lacZ activity and to a control, mUCP!: mUCP! promoter-luciferase, CV-1 cells, NHR +/- ligand, control = 1.00
How it was run: as §1

[3] = test system: hCAR promoter; experiment: NHR-promoter luciferase screen, hCAR promoter; format: cell-based, human; details: for luciferase activity normalized to lacZ activity and to a control, hCAR: hCAR promoter-luciferase, CV-1 cells, NHR +/- ligand, control = 1.00; for Luc. act., normalized to lacZ / Normalized Luc. act., normalized to control: hCAR promoter, HR/ligand component
How it was run: as §1

[4] = test system: mAgrp promoter; experiment: NHR-promoter luciferase screen, mAgrp promoter; format: cell-based, mouse; details: for Results of assays of transcription factor (+/- ligand) with mAgrp: Table 6d, luciferase activity relative to control (control = 1.00); for Luc. act., normalized to lacZ / Normalized Luc. act., normalized to control: mAgrp promoter, HR component with or without ligand; for Normalized Luc. act., normalized to control: relative to control; for luciferase/LacZ, mAgrp (selected results): mAgrp promoter-luciferase, NHR +/- ligand, control = 1.0
How it was run: as §1

[5] = test system: mPer1 promoter; experiment: NHR-promoter luciferase screen, mPer1 promoter; format: cell-based, mouse; details: for Luc. act., normalized to lacZ / Normalized Luc. act., normalized to control: Per1 promoter reporter, co-transfected HR, with or without its ligand; for Normalized Luc. act., normalized to control: relative to control; for luciferase activity normalized to lacZ activity and to a control, mPer1: mPer1 promoter-luciferase, CV-1 cells, NHR +/- ligand, control = 1.00
How it was run: as §1

[6] = test system: hCYP3A4 promoter; experiment: NHR-promoter luciferase screen, hCYP3A4 promoter; format: cell-based, human; details: for Luc. act., normalized to lacZ / Normalized Luc. act., normalized to control: CYP3A4 promoter, HR/ligand component; for hCYP3A4 promoter reporter activity: transcription factor +/- ligand, control = 1.00
How it was run: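 CV-1 cells co-transfected with NHR homodimer or NHR/RXR heterodimer (pcDNA3.1, C-terminal V5H6 tag), promoter-luciferase construct and LacZ transfection control. Orphan receptors screened without ligand. Luciferase normalized to LacZ and to no-NHR/no-ligand control.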

| Molecule | Luc. act., normalized to lacZ [1] | Normalized Luc. act., normalized to control [1] | Results of assays of transcription factor (+/- ligand) with hPPARg1 [1] | Luc. act., normalized to lacZ [2] | Normalized Luc. act., normalized to control [2] | luciferase activity normalized to lacZ activity and to a control, mUCP! [2] | luciferase activity normalized to lacZ activity and to a control, hCAR [3] | Luc. act., normalized to lacZ [3] | Normalized Luc. act., normalized to control [3] | Results of assays of transcription factor (+/- ligand) with mAgrp [4] | Luc. act., normalized to lacZ [4] | Normalized Luc. act., normalized to control [4] | Luc. act., normalized to lacZ [5] | Normalized Luc. act., normalized to control [5] | luciferase activity normalized to lacZ activity and to a control, mPer1 [5] | Luc. act., normalized to lacZ [6] | Normalized Luc. act., normalized to control [6] | hCYP3A4 promoter reporter activity [6] | luciferase/LacZ, mAgrp (selected results) [4] |
| --- | --- | --- | --- | --- | --- | --- | --- | --- | --- | --- | --- | --- | --- | --- | --- | --- | --- | --- | --- |
| B1 | 45.3 | 0.7 | 0.66 | 3.3 | 0.8 | 0.75 | 0.81 | 25.7 | 0.8 | 0.98 | 39.0 | 1.0 | 79.1 | 0.5 | 0.55 | 6.0 | 1.3 | 1.35 |  |
| B2 | 45.5 | 0.7 | 0.66 | 8.1 | 1.8 | 1.82 | 2.30 | 72.7 | 2.3 | 0.98 | 39.0 | 1.0 | 103.1 | 0.7 | 0.72 | 2.0 | 0.4 | 0.44 |  |
| B3 | 59.1 | 0.9 | 0.86 | 13.1 | 3.0 | 2.95 | 0.77 | 24.2 | 0.8 | 1.64 | 65.0 | 1.6 | 328.2 | 2.3 | 2.28 | 15.5 | 3.5 | 3.49 | 1.6 |
| B4 | 66.2 | 1.0 | 0.96 | 26.4 | 5.9 | 5.94 | 3.15 | 99.4 | 3.1 | 2.06 | 81.8 | 2.1 | 225.6 | 1.6 | 1.57 | 7.7 | 1.7 | 1.74 | 2.1 |
| B5 | 63.7 | 0.9 | 0.92 | 26.5 | 6.0 | 5.98 | 1.34 | 42.2 | 1.3 | 2.12 | 84.0 | 2.1 | 226.8 | 1.6 | 1.58 | 4.5 | 1.0 | 1.02 |  |
